The values that follow come from paper PMC11375965 (Nature, 2024).

This series concerns the molecule itself. The series is described as follows: cryo-EM structure.

B1: human INF2 (inverted formin-2) residues 469-1249 (domain or fragment)
chain: not shown
Take B1: the binding result is reported as “binds”.
